According to patent US20200087373A1 (UNIVERSITY OF COPENHAGEN, published 2020):
Ends that are not written are not given here. * marks the point of attachment. C16 diacid = O=C(O)CCCCCCCCCCCCCCC(=O)*; Stearoyl = CCCCCCCCCCCCCCCCCC(=O)*; Palmitoyl = CCCCCCCCCCCCCCCC(=O)*; Myristoyl = CCCCCCCCCCCCCC(=O)*; Lauroyl = CCCCCCCCCCCC(=O)*

T1: human GIP receptor (human, UniProt P48546 22-466)
T1 sequence (looked up): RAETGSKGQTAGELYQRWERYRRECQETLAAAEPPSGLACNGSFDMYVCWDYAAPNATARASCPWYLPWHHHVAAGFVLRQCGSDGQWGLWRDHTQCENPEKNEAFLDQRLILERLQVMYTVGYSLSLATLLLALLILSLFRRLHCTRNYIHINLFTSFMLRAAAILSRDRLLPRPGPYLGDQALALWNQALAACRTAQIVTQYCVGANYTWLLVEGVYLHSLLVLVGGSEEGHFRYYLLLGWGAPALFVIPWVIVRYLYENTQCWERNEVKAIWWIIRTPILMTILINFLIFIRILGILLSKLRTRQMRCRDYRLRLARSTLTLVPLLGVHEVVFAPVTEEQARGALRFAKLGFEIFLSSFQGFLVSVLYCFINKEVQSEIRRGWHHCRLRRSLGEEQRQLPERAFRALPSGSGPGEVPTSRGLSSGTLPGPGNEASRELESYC

B1: AT157 [hGIP(5-30)NH2[K16R; H18K; K30R]-C16diacid/18] (peptide)
peptide: TFISDYSIAMDRIK(C16 diacid)QQDFVNWLLAQR-NH2
modifications: N-terminus assumed
SMILES: CC[C@H](C)[C@H](NC(=O)[C@H](CO)NC(=O)[C@H](Cc1ccc(O)cc1)NC(=O)[C@H](CC(=O)O)NC(=O)[C@H](CO)NC(=O)[C@@H](NC(=O)[C@H](Cc1ccccc1)NC(=O)[C@@H](N)[C@@H](C)O)[C@@H](C)CC)C(=O)N[C@@H](C)C(=O)N[C@@H](CCSC)C(=O)N[C@@H](CC(=O)O)C(=O)N[C@@H](CCCNC(=N)N)C(=O)N[C@H](C(=O)N[C@@H](CCCCNC(=O)CCCCCCCCCCCCCCC(=O)O)C(=O)N[C@@H](CCC(N)=O)C(=O)N[C@@H](CCC(N)=O)C(=O)N[C@@H](CC(=O)O)C(=O)N[C@@H](Cc1ccccc1)C(=O)N[C@H](C(=O)N[C@@H](CC(N)=O)C(=O)N[C@@H](Cc1c[nH]c2ccccc12)C(=O)N[C@@H](CC(C)C)C(=O)N[C@@H](CC(C)C)C(=O)N[C@@H](C)C(=O)N[C@@H](CCC(N)=O)C(=O)N[C@@H](CCCNC(=N)N)C(N)=O)C(C)C)[C@@H](C)CC
B2: AT293 [hGIP(5-30)NH2[T5KK]-C16diacid/5] (peptide)
peptide: K(C16 diacid)FISDYSIAMDKIHQQDFVNWLLAQK-NH2
modifications: N-terminus assumed
SMILES: CC[C@H](C)[C@H](NC(=O)[C@H](CO)NC(=O)[C@H](Cc1ccc(O)cc1)NC(=O)[C@H](CC(=O)O)NC(=O)[C@H](CO)NC(=O)[C@@H](NC(=O)[C@H](Cc1ccccc1)NC(=O)[C@@H](N)CCCCNC(=O)CCCCCCCCCCCCCCC(=O)O)[C@@H](C)CC)C(=O)N[C@@H](C)C(=O)N[C@@H](CCSC)C(=O)N[C@@H](CC(=O)O)C(=O)N[C@@H](CCCCN)C(=O)N[C@H](C(=O)N[C@@H](Cc1c[nH]cn1)C(=O)N[C@@H](CCC(N)=O)C(=O)N[C@@H](CCC(N)=O)C(=O)N[C@@H](CC(=O)O)C(=O)N[C@@H](Cc1ccccc1)C(=O)N[C@H](C(=O)N[C@@H](CC(N)=O)C(=O)N[C@@H](Cc1c[nH]c2ccccc12)C(=O)N[C@@H](CC(C)C)C(=O)N[C@@H](CC(C)C)C(=O)N[C@@H](C)C(=O)N[C@@H](CCC(N)=O)C(=O)N[C@@H](CCCCN)C(N)=O)C(C)C)[C@@H](C)CC
B3: AT125 [hGIP(5-30)NH2-C16/16] (peptide)
peptide: TFISDYSIAMDK(Palmitoyl)IHQQDFVNWLLAQK-NH2
modifications: N-terminus assumed
SMILES: CCCCCCCCCCCCCCCC(=O)NCCCC[C@H](NC(=O)[C@H](CC(=O)O)NC(=O)[C@H](CCSC)NC(=O)[C@H](C)NC(=O)[C@@H](NC(=O)[C@H](CO)NC(=O)[C@H](Cc1ccc(O)cc1)NC(=O)[C@H](CC(=O)O)NC(=O)[C@H](CO)NC(=O)[C@@H](NC(=O)[C@H](Cc1ccccc1)NC(=O)[C@@H](N)[C@@H](C)O)[C@@H](C)CC)[C@@H](C)CC)C(=O)N[C@H](C(=O)N[C@@H](Cc1c[nH]cn1)C(=O)N[C@@H](CCC(N)=O)C(=O)N[C@@H](CCC(N)=O)C(=O)N[C@@H](CC(=O)O)C(=O)N[C@@H](Cc1ccccc1)C(=O)N[C@H](C(=O)N[C@@H](CC(N)=O)C(=O)N[C@@H](Cc1c[nH]c2ccccc12)C(=O)N[C@@H](CC(C)C)C(=O)N[C@@H](CC(C)C)C(=O)N[C@@H](C)C(=O)N[C@@H](CCC(N)=O)C(=O)N[C@@H](CCCCN)C(N)=O)C(C)C)[C@@H](C)CC
B4: AT126 [hGIP(5-30)NH2-C16/30] (peptide)
peptide: TFISDYSIAMDKIHQQDFVNWLLAQK(Palmitoyl)-NH2
modifications: N-terminus assumed
SMILES: CCCCCCCCCCCCCCCC(=O)NCCCC[C@H](NC(=O)[C@H](CCC(N)=O)NC(=O)[C@H](C)NC(=O)[C@H](CC(C)C)NC(=O)[C@H](CC(C)C)NC(=O)[C@H](Cc1c[nH]c2ccccc12)NC(=O)[C@H](CC(N)=O)NC(=O)[C@@H](NC(=O)[C@H](Cc1ccccc1)NC(=O)[C@H](CC(=O)O)NC(=O)[C@H](CCC(N)=O)NC(=O)[C@H](CCC(N)=O)NC(=O)[C@H](Cc1c[nH]cn1)NC(=O)[C@@H](NC(=O)[C@H](CCCCN)NC(=O)[C@H](CC(=O)O)NC(=O)[C@H](CCSC)NC(=O)[C@H](C)NC(=O)[C@@H](NC(=O)[C@H](CO)NC(=O)[C@H](Cc1ccc(O)cc1)NC(=O)[C@H](CC(=O)O)NC(=O)[C@H](CO)NC(=O)[C@@H](NC(=O)[C@H](Cc1ccccc1)NC(=O)[C@@H](N)[C@@H](C)O)[C@@H](C)CC)[C@@H](C)CC)[C@@H](C)CC)C(C)C)C(N)=O
B5: AT123 [hGIP(5-30)NH2-C14/30] (peptide)
peptide: TFISDYSIAMDKIHQQDFVNWLLAQK(Myristoyl)-NH2
modifications: N-terminus assumed
SMILES: CCCCCCCCCCCCCC(=O)NCCCC[C@H](NC(=O)[C@H](CCC(N)=O)NC(=O)[C@H](C)NC(=O)[C@H](CC(C)C)NC(=O)[C@H](CC(C)C)NC(=O)[C@H](Cc1c[nH]c2ccccc12)NC(=O)[C@H](CC(N)=O)NC(=O)[C@@H](NC(=O)[C@H](Cc1ccccc1)NC(=O)[C@H](CC(=O)O)NC(=O)[C@H](CCC(N)=O)NC(=O)[C@H](CCC(N)=O)NC(=O)[C@H](Cc1c[nH]cn1)NC(=O)[C@@H](NC(=O)[C@H](CCCCN)NC(=O)[C@H](CC(=O)O)NC(=O)[C@H](CCSC)NC(=O)[C@H](C)NC(=O)[C@@H](NC(=O)[C@H](CO)NC(=O)[C@H](Cc1ccc(O)cc1)NC(=O)[C@H](CC(=O)O)NC(=O)[C@H](CO)NC(=O)[C@@H](NC(=O)[C@H](Cc1ccccc1)NC(=O)[C@@H](N)[C@@H](C)O)[C@@H](C)CC)[C@@H](C)CC)[C@@H](C)CC)C(C)C)C(N)=O
B6: AT156 [hGIP(5-30)NH2[H18K]-C16diacid/18] (peptide)
peptide: TFISDYSIAMDKIK(C16 diacid)QQDFVNWLLAQK-NH2
modifications: N-terminus assumed
SMILES: CC[C@H](C)[C@H](NC(=O)[C@H](CO)NC(=O)[C@H](Cc1ccc(O)cc1)NC(=O)[C@H](CC(=O)O)NC(=O)[C@H](CO)NC(=O)[C@@H](NC(=O)[C@H](Cc1ccccc1)NC(=O)[C@@H](N)[C@@H](C)O)[C@@H](C)CC)C(=O)N[C@@H](C)C(=O)N[C@@H](CCSC)C(=O)N[C@@H](CC(=O)O)C(=O)N[C@@H](CCCCN)C(=O)N[C@H](C(=O)N[C@@H](CCCCNC(=O)CCCCCCCCCCCCCCC(=O)O)C(=O)N[C@@H](CCC(N)=O)C(=O)N[C@@H](CCC(N)=O)C(=O)N[C@@H](CC(=O)O)C(=O)N[C@@H](Cc1ccccc1)C(=O)N[C@H](C(=O)N[C@@H](CC(N)=O)C(=O)N[C@@H](Cc1c[nH]c2ccccc12)C(=O)N[C@@H](CC(C)C)C(=O)N[C@@H](CC(C)C)C(=O)N[C@@H](C)C(=O)N[C@@H](CCC(N)=O)C(=O)N[C@@H](CCCCN)C(N)=O)C(C)C)[C@@H](C)CC
B7: AT161 [hGIP(5-30)NH2[H18K]-C18/18] (peptide)
peptide: TFISDYSIAMDKIK(Stearoyl)QQDFVNWLLAQK-NH2
modifications: N-terminus assumed
SMILES: CCCCCCCCCCCCCCCCCC(=O)NCCCC[C@H](NC(=O)[C@@H](NC(=O)[C@H](CCCCN)NC(=O)[C@H](CC(=O)O)NC(=O)[C@H](CCSC)NC(=O)[C@H](C)NC(=O)[C@@H](NC(=O)[C@H](CO)NC(=O)[C@H](Cc1ccc(O)cc1)NC(=O)[C@H](CC(=O)O)NC(=O)[C@H](CO)NC(=O)[C@@H](NC(=O)[C@H](Cc1ccccc1)NC(=O)[C@@H](N)[C@@H](C)O)[C@@H](C)CC)[C@@H](C)CC)[C@@H](C)CC)C(=O)N[C@@H](CCC(N)=O)C(=O)N[C@@H](CCC(N)=O)C(=O)N[C@@H](CC(=O)O)C(=O)N[C@@H](Cc1ccccc1)C(=O)N[C@H](C(=O)N[C@@H](CC(N)=O)C(=O)N[C@@H](Cc1c[nH]c2ccccc12)C(=O)N[C@@H](CC(C)C)C(=O)N[C@@H](CC(C)C)C(=O)N[C@@H](C)C(=O)N[C@@H](CCC(N)=O)C(=O)N[C@@H](CCCCN)C(N)=O)C(C)C
B8: AT120 [hGIP(5-30)NH2-C12/30] (peptide)
peptide: TFISDYSIAMDKIHQQDFVNWLLAQK(Lauroyl)-NH2
modifications: N-terminus assumed
SMILES: CCCCCCCCCCCC(=O)NCCCC[C@H](NC(=O)[C@H](CCC(N)=O)NC(=O)[C@H](C)NC(=O)[C@H](CC(C)C)NC(=O)[C@H](CC(C)C)NC(=O)[C@H](Cc1c[nH]c2ccccc12)NC(=O)[C@H](CC(N)=O)NC(=O)[C@@H](NC(=O)[C@H](Cc1ccccc1)NC(=O)[C@H](CC(=O)O)NC(=O)[C@H](CCC(N)=O)NC(=O)[C@H](CCC(N)=O)NC(=O)[C@H](Cc1c[nH]cn1)NC(=O)[C@@H](NC(=O)[C@H](CCCCN)NC(=O)[C@H](CC(=O)O)NC(=O)[C@H](CCSC)NC(=O)[C@H](C)NC(=O)[C@@H](NC(=O)[C@H](CO)NC(=O)[C@H](Cc1ccc(O)cc1)NC(=O)[C@H](CC(=O)O)NC(=O)[C@H](CO)NC(=O)[C@@H](NC(=O)[C@H](Cc1ccccc1)NC(=O)[C@@H](N)[C@@H](C)O)[C@@H](C)CC)[C@@H](C)CC)[C@@H](C)CC)C(C)C)C(N)=O
B9: AT128 [hGIP(5-30)NH2-C18/16] (peptide)
peptide: TFISDYSIAMDK(C18 fatty acyl)IHQQDFVNWLLAQK-NH2

How the values were obtained:
human GIP receptor [1] = molecular target: T1, human GIP receptor; experiment: cell-based or functional assay
human GIP receptor [2] = molecular target: T1, human GIP receptor; experiment: 125I-hGIP competition binding, COS-7 cells expressing hGIPR;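 further: nonspecific binding taken as radioligand bound by untransfected cells, binding buffer with or without 2% HSA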
Protocol: After incubation, the cells were washed twice in ice-cold binding buffer (+/−2% HSA) and lysed using 200 mM NaOH with 1% SDS for 30 min. Nonspecific binding was determined as the binding of radioactive ligand to untransfected cells.

Binder | cAMP agonism (human GIP receptor [1]) | cAMP agonism, EC50 (log) (human GIP receptor [1]) | cAMP agonism, Emax (human GIP receptor [1]) | cAMP antagonism (human GIP receptor [1]) | cAMP antagonism, log (human GIP receptor [1]) | IC50 (human GIP receptor [2]) | log IC50 (human GIP receptor [2])
B1 | 3 nM | -8 log M | 12 | 7 nM | -8.1 log M | – | –
B2 | – | – | 0 | 14 nM | -7.8 log M | – | –
B3 | – | – | – | – | – | 714 nM | -6.1 log M
B4 | – | – | – | – | – | 7790 nM | -5.1 log M
B5 | – | – | – | – | – | 674 nM | -6.2 log M
B6 | 2 nM | -9 log M | 12 | 12 nM | -7.9 log M | – | –
B7 | 1060 nM | -6 log M | 7 | 252 nM | -6.6 log M | – | –
B8 | – | – | – | – | – | 1090 nM | -6 log M
B9 | – | – | – | – | – | 466 nM | -6.3 log M
